Assay results taken from article PMC5522446, “The N-terminal dimerization is required for TDP-43 splicing activity” (Scientific Reports, 2017).
Numbering of substitutions follows the chain as printed.

Columns and labels:
[1] = biological target: TDP(1–77)-C39/C50S (human) (UniProt Q13148); assay: SEC; protein at 250 µM; Superdex-200 Increase 10/300 GL; Buffer A; room temperature
[2] = biological target: TDP(1–77)-C39/C50S (human) (UniProt Q13148); assay: SEC; protein at 50 µM; Superdex-200 Increase 10/300 GL; Buffer A (25 mM Tris-HCl, pH 8.0, 150 mM NaCl); room temperature; apparent MW from standard proteins
[3] = biological target: TDP(1–77)-C39/C50S (human) (UniProt Q13148); assay: SEC; protein at 500 µM; Superdex-200 Increase 10/300 GL; Buffer A; room temperature
[4] = biological target: TDP(1–77)-C39/C50S (human) (UniProt Q13148); assay: SEC; protein at 10 µM; Superdex-200 Increase 10/300 GL; Buffer A; room temperature
[5] = biological target: the molecule itself; assay: SEC; protein at 50 µM; Superdex-200 Increase 10/300 GL; Buffer A (25 mM Tris-HCl, pH 8.0, 150 mM NaCl); room temperature; apparent MW from standard proteins
[6] = biological target: the molecule itself; assay: SEC; series of different protein concentrations (Fig. S1, Fig. S2D,E); Buffer A; room temperature
[7] = biological target: the molecule itself; assay: SEC; protein at 10 µM; Superdex-200 Increase 10/300 GL; Buffer A; room temperature
[8] = biological target: the molecule itself; assay: SEC; protein at 500 µM; Superdex-200 Increase 10/300 GL; Buffer A; room temperature
[9] = biological target: the molecule itself; assay: SEC; protein at 50 µM; Superdex-200 Increase 10/300 GL; Buffer A (25 mM Tris-HCl, pH 8.0, 150 mM NaCl); room temperature; apparent MW from standard proteins; remark: listed apart in the source
[10] = biological target: the molecule itself; assay: SEC; protein at 500 µM treated with 5 mM DTT; Superdex-200 Increase 10/300 GL; Buffer A; room temperature
[11] = biological target: the molecule itself; assay: SEC; protein at 250 µM; Superdex-200 Increase 10/300 GL; Buffer A; room temperature

TDP(1–77)-C39/C50S (from UniProt Q13148 1-77) (domain or fragment)
stoichiometry N [1]: 1.8
stoichiometry N [2]: 1.7
stoichiometry N [3]: 1.8
stoichiometry N [4]: 1.7

B1: TDP(1–89) (domain or fragment, human, UniProt Q13148 1-89, looked up)
chain: MSEYIRVTEDENDEPIEIPSEDDGTVLLSTVTAQFPGACGLRYRNPVSQCMRGVRLVEGILHAPDAGWGNLVYVVNYPKDNKRKMDETD
notes: TDP-43, human, residues 1-89; pET22b, Nde I/Xho I; C-terminal His6 surmised; Printed theoretical MW 11.1 kDa; also called TDP-43 NTD; source: E. coli BL21 (DE3), purified (Ni2+-NTA, SEC)
stoichiometry N [5]: 2.4

B2: TDP(1–89) Cys mutant (Cys39 and Cys50 to Ser) (domain or fragment, human, UniProt Q13148 1-89, looked up)
chain: B1 chain with C39S, C50S
notes: TDP-43, human, residues 1-89 with Cys39 and Cys50 mutated to Ser; pET22b, Nde I/Xho I; C-terminal His6 surmised; also called TDP(1–89) mutant; source: E. coli BL21 (DE3), purified (Ni2+-NTA, SEC)
binding result [6]: binds

B3: TDP(1–77) (domain or fragment, human, UniProt Q13148 1-77, looked up)
chain: MSEYIRVTEDENDEPIEIPSEDDGTVLLSTVTAQFPGACGLRYRNPVSQCMRGVRLVEGILHAPDAGWGNLVYVVNY
notes: TDP-43, human, residues 1-77; pET22b, Nde I/Xho I; C-terminal His6 surmised; Printed theoretical MW 9.6 kDa; PDB 2N4P (cited) is His6-TDP(1–77); also called N-terminal 77-residue construct; wild-type TDP(1–77); source: E. coli BL21 (DE3), purified (Ni2+-NTA, SEC)
stoichiometry N [7]: 1.7
stoichiometry N [8]: 2.3
stoichiometry N [9]: 1.8
stoichiometry N [10]: 2.4
stoichiometry N [11]: 2.1
